Experimental data: IntAct's records for PubMed 40624043

B1: NTF2-related export protein 2 (Homo sapiens), Q9NPJ8-3 (parent)
chain: MRKYRSHWSQGDREGYQRRSNYYEGPHTSHSSPADRTREEVVTPTLPEHTATRSQMATSLDFKTYVDQACRAAEEFVNIYYETMDKRRRALTRLYLDKATLIWNGNAVSGLDALNNFFDTLPSSEFQVNMLDCQPVHEQATQSQTTVLVVTSGTVKFDGNKQHFFNQNFLLTAQSTPNNTVWKIASDCFRFQDWSSS
partner: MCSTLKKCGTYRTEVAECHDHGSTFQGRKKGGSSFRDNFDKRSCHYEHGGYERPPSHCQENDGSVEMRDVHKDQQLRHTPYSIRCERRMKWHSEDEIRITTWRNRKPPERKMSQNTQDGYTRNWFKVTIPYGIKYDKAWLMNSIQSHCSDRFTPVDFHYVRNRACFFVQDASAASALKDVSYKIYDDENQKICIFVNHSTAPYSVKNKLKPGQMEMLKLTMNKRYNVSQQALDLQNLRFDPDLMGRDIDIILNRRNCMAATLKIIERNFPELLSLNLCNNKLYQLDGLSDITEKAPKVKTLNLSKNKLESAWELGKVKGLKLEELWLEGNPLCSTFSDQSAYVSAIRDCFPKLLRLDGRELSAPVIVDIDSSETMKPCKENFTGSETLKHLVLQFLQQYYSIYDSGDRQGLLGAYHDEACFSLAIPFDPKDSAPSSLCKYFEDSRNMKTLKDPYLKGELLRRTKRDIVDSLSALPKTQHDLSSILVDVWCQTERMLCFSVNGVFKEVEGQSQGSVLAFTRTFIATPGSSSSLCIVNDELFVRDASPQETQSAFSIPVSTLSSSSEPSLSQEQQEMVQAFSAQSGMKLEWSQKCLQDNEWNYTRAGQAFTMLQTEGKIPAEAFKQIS
B2: NTF2-related export protein 2 (Homo sapiens), Q9NPJ8-3 (parent)
chain: B1 chain
partner: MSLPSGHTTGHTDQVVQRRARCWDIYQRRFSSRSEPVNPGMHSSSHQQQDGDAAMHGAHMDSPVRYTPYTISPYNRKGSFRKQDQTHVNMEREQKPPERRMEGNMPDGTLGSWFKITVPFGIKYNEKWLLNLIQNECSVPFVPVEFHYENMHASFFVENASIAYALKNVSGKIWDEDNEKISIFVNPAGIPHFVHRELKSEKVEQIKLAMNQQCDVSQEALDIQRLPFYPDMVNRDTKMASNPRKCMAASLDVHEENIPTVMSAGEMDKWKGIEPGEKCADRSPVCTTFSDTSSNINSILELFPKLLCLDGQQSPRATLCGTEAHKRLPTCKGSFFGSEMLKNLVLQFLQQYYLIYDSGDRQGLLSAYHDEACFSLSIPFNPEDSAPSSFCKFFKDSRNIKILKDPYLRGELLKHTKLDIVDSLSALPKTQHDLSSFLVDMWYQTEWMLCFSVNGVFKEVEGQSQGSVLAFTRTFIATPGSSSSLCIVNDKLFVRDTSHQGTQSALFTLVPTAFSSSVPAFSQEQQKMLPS

Variants of: B1
Settings: with nxf2_human NXF2B

effect of a mutation on the interaction | Variant
with no effect | A90S

Variants of: B2
Settings: with NXF3, Q9H4D5-1

effect of a mutation on the interaction | Variant
with no effect | A90S
